In the DeepSol protein solubility set:

Assay: soluble on expression in E. coli; label from the status in PepcDB or PDB records

Sequence	soluble on expression in E. coli
MSLQTAAAPTPAPVAAAPALPQGQVNIAVGSLKCKAEKCYGGLGEGIGDALTTALLNTGKFAVYERENTAQLTEEAFLNGGATFQGADVLIFGAITQYEPQASSGGLSFMGVSVGKKSSTIAMDLRIVDAKTRRIIGATQVQGKAEGNNFNVSGLLPVNVGAQSSPQLEAAISQMLNNAAQQLLLKVPASYYKEEGHHHHHH	soluble
MSLQTQDIIRRSGTNSLTPPPQVRDHQEPVAKLIDVTTCIGCKACQVACSEWNDIRDEVGHNVGVYDNPADLTAKSWTVMRFSEVEDEESGKLEWLIRKDGCMHCADPGCLKACPSEGAIIQYANGIVDFQSEHCIGCGYCIAGCPFDVPRMNKDDNRVYKCTLCVDRVGVGQEPACVKTCPTGAIHFGTKESMKEVAAGRVAELKTRGFDNAGLYDPAGVGGTHVMYVLHHADKPQLYHGLPENPTISPTVTFWKGIWKPLAAVGFAATFAASIFHYVGVGPNRVEEEEEDDETTDPTPSETVAKAPEQTTSERSDEGETRK	not soluble
MSLQTRPILVVGATGKTGSRVAAKLEAKGAAVRRGSRHAEIPFDWESPATWAPALSGVSRAYVTYFPDLAFPGAVEKLEAFTKVAAASGLDQIVLLSGRGEHHARLGEKVVETSGIPFTIVRAAWFAQNFSEGYLRDPVVAGVLPMPGGDIAEPIIDIDDIADVVVAALSEDGHAGQLYEVTGPRLMTFAEMAKVLSTATGRPIRHLPISFEDFHANVAAAGGEFVADVFTAIARETLDGRNAYVSDGVERALGRKPRDFAAFAAAAASQGLWTAAEGHHHHHH	soluble
MSLQVFGVSRSGYYNWVQHEPSDRKQSDERLKLEIKVAHIRTRETYGTRRLQTELAENGIIVGRDRLARLRKELRLRCKQKRKFRATTNSNHNLPVAPNLLNQTFAPTAPNQVWVADLTYVATQEGWLYLAGIKDVYTCEIVGYAMGERMTKELTGKALFMALRSQRPPAGLIHHSDRGSQYCAYDYRVIQEQFGLKTSMSRKGNCYDNAPMESFWGTLKNESLSHYRFNNRDEAISVIREYIEIFYNRQRRHSRLGNISPATFREKYHQMAAEGHHHHHH	not soluble
MSLRAELNQGLIDFLKASPTPFHATASLARRLEAAGYRRLDERDAWHTETGGRYYVTRNDSSLIAIRLGRRSPLESGFRLVGAHTDSPCLRVKPNPEIARNGFLQLGVEVYGGALFAPWFDRDLSLAGRVTFRANGKLESRLVDFRKAIAVIPNLAIHLNRAANEGWPINAQNELPPIIAQLAPGEAADFRLLLDEQLLREHGITADVVLDYELSFYDTQSAAVVGLNDEFIAGARLDNLLSCHAGLEALLNAEGDENCILVCTDHEEVGSCSHCGADGPFLEQVLRRLLPEGDAFSRAIQRSLLVSADNAHGVHPNYADRHDANHGPALNGGPVIKINSNQRYATNSETAGFFRHLCQDSEVPVQSFVTRSDMGCGSTIGPITASQVGVRTVDIGLPTFAMHSIRELAGSHDLAHLVKVLGAFYASSELEGHHHHHH	soluble
MSLRCLVTGATGYVGGRLVPELLDAGHRVRCLARSPDRLRDHPWAGKAEVVRGDVTDADSVARAMEGVDVAYYLVHALGSGDDFEATDRRAARTFAERAAAAGVRRIVYLGGLTPAGVPEGELSPHLRSRTEVGRILLASGVPTTVLRAAVVIGSGSASFEMLRYLTERLPVMVTPSWVHTRIQPVAVRDVLRALVGSATMPREVSRTFDVGGPDILTYREMMERYARVAELPRRLILPVPMLSPGLSSHWVGLVTPVPAAIARPLTESLRHEVVCGENDIVRYVPPPPGYPLGFDDALRLALQRVREARVTTRWSSASVPGAPSDPLPTDPDWAGGSLYTDDRALGVDAPPDALWRVVEGIGGDHGWYSFPLAWAVRGWLDRLVGGVGLRRGRRDAARLRVGDSLDFWRVEEIVPGRLLRLRAEMRLPGLAWLEMYAETDDAGRTRYRQRALFHPHGLAGHAYWWSVSPFHAVVFGGMARNIARAAARAAEGHHHHHH	not soluble
MSLRDLKTLLIVIDGVSYSVFNQFRYNLDTMNNLIENGSFGKLESVFPTITPVALASLFTGYLPLNHGITSTKIFIKGNSLSKPLSAHSSTPLKVDPIWYLLAKKGYKVVVASAPQALPDKWKLKNLTLFDPYKSKIKECSDGALLNIGNTTINEVNFDIESNNNEYTIKITDIENNTLSLKLRQNEWTSPLEVIMGCKGKEMKGTFRLKGLSNGVYLTPVSFLIPSWSNNQELQNEIWENVVKKYGMLLDGDYISLKSNIIGFSEYYETLKFAYEFFYNYSLYLLKREEWDFAITYLPIVDNIQHLLFGVDDSQSLDYVFQVYKMADNFVKAHIELADNIIICSDHGINKVKKRLYLNKFLEELNVLKTVDDKKIDWKRTKAYYGGGGIIRINLREREKFGIVGKKEFNKLIKYLTINLERLEDPDTGERIFTVIYSNETPASDRQGDIMIDGVNPKYSISSNIEKDTIFENVIPYRTTTADHGYYRNDDINGIIIFYGKNFTKKQVNMKIVDVTPTILKLYGINCKSDGKIVNEVFKNGHADSTKEGHHHHHH	not soluble
MSLRHDFVFSGVIMLELNAKTTALVVIDLQEGILPFAGGPHTADEVVNRAGKLAAKFRASGQPVFLVRVGWSADYAEALKQPVDAPSPAKVLPENWWQHPAALGATDSDIEIIKRQWGAFYGTDLELQLRRRGIDTIVLCGISTNIGVESTARNAWELGFNLVIAEDACSAASAEQHNNSINHIYPRIARVRSVEEILNALEGGSHHHHHH	soluble
MSLRIIHICLWLLTGIFAEVSLSAQNPFIYHKGKTYKDVAAYRMEEIIDLNTHTPSTPILYEQQVPEHQSTLSYKVALPLYVRGIFFSRDSRPGDYQWPNNTNRLLPWMFNHLEDLTRSDYASIPSNALPSASGDALLLELADGEYLFAKAIAGSNSLSWFQVNQDGTLTLYVSTLGEDALTGRLPLLIFRKSSSVYHVFSDAYDSLIADKAVSALRKRADKQYFNAFDYLGWCTWEHYHYDIDETKILNDIDAIEASGIPVRYVLIDDGHIANKNRQLTSLVPDKKRFPNGWSRIMKRKQADKIRWIGLWYSLSGYWMGISAENDFPPEIRQVLHSYNGSLLPGTSTEKIETWYEYYVRTMKEYGFDFLKIDNQSFTLPLYMGGTQVIRQAKDCNLALEHQTHRMQMGLMNCMAQNVLNIDHTLYSSVTRASIDYKKYDENMAKSHLFQSYTNTLILGQTVWPDHDMFHSCDTVCGSLMARSKAISGGPVYLSDSPSEFIADNIRPLIDETGKIFRPAAPAIPTPESILTNPLQSGKAYREGHHHHHH	soluble
MSLRITGERIYLRPFQIIDANQKLAFHLANKAFFEGYSMERDDRFYTIEEQQSLISRLEDFAASDVEYYYGIFLNDTDELIGTINLFSILRESLQSAFIGYFLDKKHNGNGYATEAVQLIVDFGFDILGLHRIEAGVMPKNERSKQVLLKAGFHLEGLAVQNVRINGTWEDHQVLAIINPGDEGHHHHHH	soluble
MSLRKFMVLGYGEIGKLAIKHLLSHKVECIYLIVRDKSKASDLEGEIVEVLDFNEKNQVINEIDCIVSCTAAPHTVVRNEDIKTEGETIHIYDLAVPRDVDKELSEKERVILKDIDEISKIDDKNKKIRKERMEEYKHIVEESIDEFLNWLKIREVSSKIRNIKIRENEICSERIKTFSNKGNGENAKLAERMIKSTADAYVNRAIELLKSEALKGSDSYCAEIIEKIFLTEGHHHHHH	not soluble
